{"source": "paper doi:10.1101/2025.08.01.667454", "molecular_target": "PU.1[60–100]^TMR (human) (UniProt P17947)", "test": "fluorescence polarisation", "data": [{"substance": "BAF60A^SWIB (domain or fragment)", "values": [{"measurement": "Kd", "value": "> 50", "unit": "µM"}]}]}
